Results reported in publication PMC5072170.

Test system: Cc1cn([C@H]2C[C@H](O)[C@@H](COP(=O)(O)OP(=O)(O)O[C@H]3O[C@H](C)[C@@H](O)[C@H](N)[C@H]3O)O2)c(=O)[nH]c1=O
Test: purified protein
Conditions: 5 mM N10-formyl-THF, 50 mM HEPPS pH 8.0, hyperbolic

QdtF (Providencia alcalifaciens)
Km: 450 ± 90 µM | kcat: 2.43 ± 0.31 s⁻¹ | kcat/Km: 5400 M⁻¹ s⁻¹
